Data reported in patent US20240374671A1 (ACCELERON PHARMA, published 2024).
Where a chain is given by its changes, count along the chain named.

T1: dimeric hActRIIB (human, UniProt Q13705 25-130)
T1 construct: also called ActRIIB DIMER; ActRIIB dimer
T1 sequence: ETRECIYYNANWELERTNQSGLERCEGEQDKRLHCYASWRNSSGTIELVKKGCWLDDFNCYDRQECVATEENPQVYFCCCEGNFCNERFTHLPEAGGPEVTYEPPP

T2: monomeric hActRIIB (human, UniProt Q13705 25-130, limits assumed)
T2 construct: also called ActRIIB MONOMER; ActRIIB monomer
T2 sequence: T1 sequence

B1: G01 (antibody, human IgG1, kappa, V domains shown)
VH: QLQLQESGPGLVKPSETLSLTCTVSGGSISSSSYAWGWIRQPPGKGLEWIGSIYYSGSTYYNPSLKSRVTISVDTSKNQFSLKLSSVTAADTAVYYCARAGKYRWHGMDVWGQGTTVTVSS
VL: DIQMTQSPSSVSASVGDRVTITCRASQGISSWLAWYQQKPGKAPKLLIYAASNLQSGVPSRFSGSGSGTDFTLTISSLQPEDFATYYCQQAPDLPITFGGGTKVEIKR
notes: Human IgG; also called G01 Parent; G01 (naïve parent)
B2: D02 (antibody, human IgG1, V domains shown)
VH: QVQLVQSGAEVKKPGASVKVSCKASGYTFTSYRMHWVRQAPGQGLEWMGFIVPSGGSTSYAQKFQGRVTMTRDTSTSTVYMELSSLRSEDTAVYYCARVSMYAPEPMDVWGQGTTVTVSS
VL: DIQMTQSPSSVSASVGDRVTITCRASQGISRWLAWYQQKPGKAPKLLIYAASSLQSGVPSRFSGSGSGTDFTLTISSLQPEDFATYYCQQAFSHPWTFGGGTKVEIK
notes: Human IgG
B3: A02 (antibody, human IgG1, V domains shown)
VH: QVQLVQSGAEVKKPGASVKVSCKASGYTFTSYGISWVRQAPGQGLEWMGWISPYNGNTNYAQKLQGRVTMTTDTSTSTAYMELRSLRSDDTAVYYCARVSMYAPEPMDVWGQGTTVTVSS
VL: B2 VL
notes: Human IgG; also called A02 Parent
B4: B02 (antibody, human IgG1, V domains shown)
VH: QVQLVQSGAEVKKPGASVKVSCKASGYTFTGHKMHWVRQAPGQGLEWMGWINPASGWTNYAQKFQGRVTMTRDTSISTAYMELSRLRSDDTAVYYCARVSMYAPEPMDVWGQGTTVTVSS
VL: B2 VL
notes: Human IgG
B5: D03 (antibody, human IgG1)
heavy: not shown
light: B2 VL
notes: Human IgG
B6: C02 (antibody, human IgG1, V domains shown)
VH: B2 VH with R33N, H35A, F50I, V52R, G55V
VL: B2 VL
notes: Human IgG
B7: D01 (antibody, human IgG1, kappa, V domains shown)
VH: QVQLQESGPGLVKPSQTLSLTCTVSGGSIESGGYYWSWIRQHPGKGLEWIGGIYGSGSTYYNPSLKSRVTISVDTSKNQFSLKLSSVTAADTAVYYCARDSGIGYSYASSHGYYYYMDVWGKGTTVTVSS
VL: EIVLTQSPATLSVSPGERATLSCRASQSVGSNLAWYQQKPGQAPRLLIYGASTRATGIPARFSGSGSGTEFTLTISSLQSEDFAVYYCQQYFHFPLTFGGGTKVEIKR
notes: Human IgG
B8: B01 (antibody, V domains shown)
VH: B7 VH with E30L, G55Y, S58K
VL: EIVLTQSPATLSVSPGERATLSCRASQSVGSNLAWYQQKPGQAPRLLIYGASTRATGIPARFSGSGSGTEFTLTISSLQSEDFAVYYCQQYFHFPLTFGGGTKVEIK
notes: Human IgG
B9: A01 (antibody, human IgG1, kappa, V domains shown)
VH: B7 VH with V2L, Q16E, E30S, G32S, G33S, Y35A, S37G, H42P, G52S, G55Y
VL: B7 VL
notes: Human IgG from yeast libraries; also called A01 Parent; A01 (naïve parent)
B10: F01 (antibody, human IgG1, kappa, V domains shown)
VH: B7 VH with E30K, G55P
VL: B7 VL
notes: Human IgG
B11: E01 (antibody, human IgG1, kappa, V domains shown)
VH: B7 VH with E30G
VL: B7 VL
notes: Human IgG
B12: C01 (antibody, human IgG1, kappa, V domains shown)
VH: B7 VH with E30S, Y35F, G55Y, S58R
VL: B7 VL
notes: Human IgG

Target: T3, monomeric hActRIIA (human, UniProt P27037 21-138, limits assumed)
T3 construct: also called ActRIIA MONOMER; ActRIIA monomer
Test: SPR (BIACORE), 37 C, series of concentrations (not printed on the sheet)

T3 sequence (P27037 21-138 limits assumed): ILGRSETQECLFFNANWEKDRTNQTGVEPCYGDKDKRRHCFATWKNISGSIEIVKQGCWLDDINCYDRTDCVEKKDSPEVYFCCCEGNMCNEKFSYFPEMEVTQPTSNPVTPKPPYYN

Row | binding result | Binder
1 | no binding | B1

Target: T1, dimeric hActRIIB
Test: SPR (Biacore), 37 C

Row | Kd [nM] | koff [s⁻¹] | kon [M⁻¹ s⁻¹] | Binder
2 | 0.727 | 0.000123 | 170000 | B2
3 | 0.511 | 0.000112 | 219000 | B3
4 | 0.649 | 0.00021 | 323000 | B4
5 | 0.0226 | 1.04e-05 | 459000 | B5
6 | 0.333 | 9.64e-05 | 289000 | B6

Target: T3, monomeric hActRIIA
Test: SPR (Biacore), 37 C

Row | Kd [nM] | koff [s⁻¹] | kon [M⁻¹ s⁻¹] | Binder
7 | 18.6 | 0.00684 | 369000 | B2
8 | 8.13 | 0.00593 | 729000 | B4
9 | 26.4 | – | – | B6

Target: T4, dimeric hActRIIA (human, UniProt P27037 21-138)
T4 construct: also called ActRIIA DIMER; ActRIIA dimer
Test: SPR (Biacore), 37 C

T4 sequence (P27037 21-138): as the sequence (P27037 21-138 limits assumed) above

Row | Kd [nM] | koff [s⁻¹] | kon [M⁻¹ s⁻¹] | Binder
10 | 0.316 | 0.000106 | 336000 | B2
11 | 1.78 | 0.000627 | 353000 | B3
12 | 0.338 | 0.000167 | 495000 | B4
13 | 0.153 | 8.02e-05 | 524000 | B6

Target: T2, monomeric hActRIIB
Test: SPR (Biacore), 37 C

Row | Kd [nM] | koff [s⁻¹] | kon [M⁻¹ s⁻¹] | Binder
14 | 0.65 | 0.000291 | 447000 | B2
15 | 22 | 0.0662 | 3.02e+06 | B3
16 | 1.1 | 0.001 | 905000 | B4
17 | 0.194 | 0.000203 | 1.05e+06 | B5
18 | 0.528 | 0.000515 | 975000 | B6

Target: T1, dimeric hActRIIB
Test: SPR (Biacore), 37 C
Remark: another data set of the same source

Row | Kd [nM] | koff [s⁻¹] | kon [M⁻¹ s⁻¹] | Binder
19 | 1.14 | 0.00022 | 176000 | B1

Target: T2, monomeric hActRIIB
Test: SPR (Biacore), 37 C
Remark: another data set of the same source

Row | Kd [nM] | koff [s⁻¹] | kon [M⁻¹ s⁻¹] | Binder
20 | 16.8 | 0.0152 | 905000 | B1

Target: T1, dimeric hActRIIB
Test: SPR (Biacore), 37 C, mAb captured on anti-hFc chip, receptor injected, 1:1 fit
Description: (§1) Kinetic characterization of A01 antibody lineage (A01 (naïve parent), B01, C01, D01, E01 and F01) binding to monomeric and dimeric hActRIIB and hActRIIA was performed using standard BIACORE®-based analysis at 37° C. In brief, antibodies were captured on anti-hFcIgG Biacore chips and different concentrations of dimeric and monomeric ActRIIB or ActRIIA were injected in duplicates over the captured antibody and control surface. To obtain kinetic rate constants the data were double referenced and fit to a 1:1 interaction model using BiaEvaluation software (GE Healthcare). The equilibrium binding constant KD was determined by the ratio of binding rate constants kd/kₐ

Row | Kd [nM] | koff [s⁻¹] | kon [M⁻¹ s⁻¹] | Binder
21 | 0.302 | 0.00025 | 828000 | B7
22 | 0.393 | 0.000246 | 626000 | B8
23 | 1.21 | 0.000128 | 106000 | B9
24 | 0.36 | 0.000216 | 601000 | B10
25 | 0.376 | 0.000292 | 777000 | B11
26 | 0.236 | 0.000188 | 797000 | B12

Target: T2, monomeric hActRIIB
Test: as above
Description: as §1

Row | Kd [nM] | koff [s⁻¹] | kon [M⁻¹ s⁻¹] | Binder
27 | 2.19 | 0.00354 | 1.61e+06 | B7
28 | 3.64 | 0.0034 | 1.09e+06 | B8
29 | 1150 | 0.198 | 172000 | B9
30 | 3.32 | 0.00444 | 1.34e+06 | B10
31 | 2.45 | 0.00415 | 1.7e+06 | B11
32 | 5.22 | 0.00712 | 1.37e+06 | B12

Target: T3, monomeric hActRIIA
Test: SPR (Biacore), 37 C, mAb captured on anti-hFc chip, receptor injected
Description: as §1

Row | binding result | Binder
33 | no binding | B7
34 | no binding | B8
35 | no binding | B10
36 | no binding | B11
37 | no binding | B12

Target: T4, dimeric hActRIIA
Test: as above
Description: as §1

Row | binding result | Binder
38 | no binding | B7
39 | no binding | B8
40 | no binding | B10
41 | no binding | B11
42 | no binding | B12

Target: T4, dimeric hActRIIA
Test: SPR (BIACORE), 37 C, series of concentrations (not printed on the sheet)

Row | binding result | Binder
43 | no binding | B1

Target: T3, monomeric hActRIIA
Test: as above
Remark: another data set of the same source
Description: (§2) FIGS. 1A-1N depict kinetic characterization of A01 lineage antibodies binding to hActRIIB and hActRIIA as determined by BIACORE®-based analysis at 37° C. Monomeric or dimeric hActRIIB or hActRIIA was […]. FIGS. 1A-1D depict characterization of antibody A01 (parent) binding to ActRIIB monomer (FIG. 1A), ActRIIB dimer (FIG. 1B), ActRIIA monomer (FIG. 1C), and ActRIIA dimer (FIG. 1D). FIGS. 1E and 1F depict characterization of antibody B01 binding to ActRIIB monomer (FIG. 1E) and ActRIIB dimer (FIG. 1F). FIGS. 1G-1H depict antibody C01 binding to ActRIIB monomer (FIG. 1G) and ActRIIB dimer (FIG. 1H). FIGS. 1I-1J depict antibody D01 binding to ActRIIB monomer (FIG. 1I) and ActRIIB dimer (FIG. 1J). FIGS. 1K-1L depict antibody E01 binding to ActRIIB monomer (FIG. 1K) and ActRIIB dimer (FIG. 1L). FIGS. 1M-1N depict antibody F01 binding to ActRIIB monomer (FIG. 1M) and ActRIIB dimer (FIG. 1N).
(§3) Kinetic characterization of A01 antibody lineage (A01 (naïve parent), B01, C01, D01, E01 and F01) binding to monomeric and dimeric hActRIIB and hActRIIA was performed using standard BIACORE®-based analysis at 37° C. […] The equilibrium binding constant KD was determined by the ratio of binding rate constants kd/kₐ

Row | binding result | Binder
44 | no binding | B9

Target: T4, dimeric hActRIIA
Test: as above
Remark: another data set of the same source
Description: as §2, §3

Row | binding result | Binder
45 | no binding | B9
